From IntAct's records for PubMed 17586626

B1: Multidrug resistance protein MexB (Pseudomonas aeruginosa (strain ATCC 15692 / PAO1 / 1C / PRS 101 / LMG 12228)), P52002 (parent)
chain: MSKFFIDRPIFAWVIALVIMLAGGLSILSLPVNQYPAIAPPAIAVQVSYPGASAETVQDTVVQVIEQQMNGIDNLRYISSESNSDGSMTITVTFEQGTDPDIAQVQVQNKLQLATPLLPQEVQRQGIRVTKAVKNFLMVVGVVSTDGSMTKEDLSNYIVSNIQDPLSRTKGVGDFQVFGSQYSMRIWLDPAKLNSYQLTPGDVSSAIQAQNVQISSGQLGGLPAVKGQQLNATIIGKTRLQTAEQFENILLKVNPDGSQVRLKDVADVGLGGQDYSINAQFNGSPASGIAIKLATGANALDTAKAIRQTIANLEPFMPQGMKVVYPYDTTPVVSASIHEVVKTLGEAILLVFLVMYLFLQNFRATLIPTIAVPVVLLGTFGVLAAFGFSINTLTMFGMVLAIGLLVDDAIVVVENVERVMAEEGLSPREAARKSMGQIQGALVGIAMVLSAVFLPMAFFGGSTGVIYRQFSITIVSAMALSVIVALILTPALCATMLKPIEKGDHGEHKGGFFGWFNRMFLSTTHGYERGVASILKHRAPYLLIYVVIVAGMIWMFTRIPTAFLPDEDQGVLFAQVQTPPGSSAERTQVVVDSMREYLLEKESSSVSSVFTVTGFNFAGRGQSSGMAFIMLKPWEERPGGENSVFELAKRAQMHFFSFKDAMVFAFAPPSVLELGNATGFDLFLQDQAGVGHEVLLQARNKFLMLAAQNPALQRVRPNGMSDEPQYKLEIDDEKASALGVSLADINSTVSIAWGSSYVNDFIDRGRVKRVYLQGRPDARMNPDDLSKWYVRNDKGEMVPFNAFATGKWEYGSPKLERYNGVPAMEILGEPAPGLSSGDAMAAVEEIVKQLPKGVGYSWTGLSYEERLSGSQAPALYALSLLVVFLCLAALYESWSIPFSVMLVVPLGVIGALLATSMRGLSNDVFFQVGLLTTIGLSAKNAILIVEFAKELHEQGKGIVEAAIEACRMRLRPIVMTSLAFILGVVPLAISTGAGSGSQHAIGTGVIGGMVTATVLAIFWVPLFYVAVSTLFKDEASKQQASVEKGQ
partner: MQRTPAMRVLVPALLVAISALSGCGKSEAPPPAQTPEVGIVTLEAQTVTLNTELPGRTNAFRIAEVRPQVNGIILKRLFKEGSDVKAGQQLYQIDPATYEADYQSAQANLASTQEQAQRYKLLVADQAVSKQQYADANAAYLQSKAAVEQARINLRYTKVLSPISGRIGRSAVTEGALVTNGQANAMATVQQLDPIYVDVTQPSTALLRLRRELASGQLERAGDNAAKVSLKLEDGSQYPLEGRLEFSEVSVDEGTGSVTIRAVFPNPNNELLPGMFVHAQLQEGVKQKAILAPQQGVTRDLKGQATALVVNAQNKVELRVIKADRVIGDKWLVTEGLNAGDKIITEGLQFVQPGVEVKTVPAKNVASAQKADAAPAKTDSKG
B2: Multidrug resistance protein MexA (Pseudomonas aeruginosa (strain ATCC 15692 / PAO1 / 1C / PRS 101 / LMG 12228)), P52477 (parent)
chain: B1 partner
partner: B1 chain

Variants of: B1
Conditions: with mexa_pseae mexA, P52477

Variant | effect of a mutation on the interaction
G220S | decreasing interaction strength

Variants of: B2
Conditions: with mexb_pseae mexB, P52002

Variant | effect of a mutation on the interaction
MQRTPAMRVLVPALLVAISALSGCGKSEAPPPAQTPEVGIVTLEAQTVTLNTELPGRTNAFRIAEMRPQVNGIILKRLFKEGSDVKAGQQLYQIDPATYEADYQSAQANLASTQEQAQRYKLLVADQAVSKQQYADANAAYLQSKAAVEQARINLRYTKVLSPISGRIGRSAVTEGALVTNGQANAMATVQQLDPIYVDVTQPSTALLRLRRELASGQLERAGDNAAKVSLKLEDGSQYPLEGRLEFSEVSVDEGTGSVTIRAVFPNPNNELLPGMFVHAQLQEGVKQKAILAPQQGVTRDLKGQATALVVNAQNKVELRVIKADRVIGDKWLVTEGLNAGDKIITEGLQFVQPGVEVKTVPAKNVASAQKADAAPAKTDSKG [V66M] | increasing interaction strength
MQRTPAMRVLVPALLVAISALSGCGKSEAPPPAQTPEVGIVTLEAQTVTLNTELPGRTNAFRIAEVRPQVNGIILKRLFKEGSDVKAGQQLYQIDPATYEADYQSAQANLASTQEQAQRYKLLVADQAVSKQQYADANAAYLQSKAAVEQARINLRYTKVLSPISGRIGRSAVTEGALVTNGQANAMATVQQLDPIYVDVTQPSTALLRLRRELASGQLERAGDNAAKVSLKLEDGSQYPLEGRLEFSEVSVDEGTGSFTIRAVFPNPNNELLPGMFVHAQLQEGVKQKAILAPQQGVTRDLKGQATALVVNAQNKVELRVIKADRVIGDKWLVTEGLNAGDKIITEGLQFVQPGVEVKTVPAKNVASAQKADAAPAKTDSKG [V259F] | increasing interaction strength
